# B1: DMRT-binding motif oligonucleotide (dsDNA)
# DNA 1: GGATCCTCGAGAACAATGTAACAATTTCGCCC
# DNA 2: GGGCGAAATTGTTACATTGTTCTCGAGGATCC
# Columns and labels:
# DMRT3 wild-type = DMRT3 wild-type (Equus caballus, UniProt F6W2R2 SEQ:1-474); assay: EMSA; 150x cold competitor used; on ice 20 min then room temperature 30 min; details: tags: myc; label: 32P (Klenow fill-in with alpha-32P-dCTP)
# Procedure: (§1) The oligonucleotide 5′-ggatcc[…]-3′ and its complementary sequence were annealed in 10 mM Tris pH 7.5, 1 mM EDTA, 50 mM KCl by firstly heating to 95° C. for 2 min and thereafter cooled to 25° C. (2 min/degree). The duplex was labelled with Klenow DNA polymerase and [α-32P]-dCTP and purified using a Bio-Rad Micro Bio-Spin 30 column. DMRT3 wild type and mutant protein were produced by in vitro-translation using a TNT Quick Coupled Transcription/Translation System (Promega). EMSA was performed as described by Culbertson & Leeds, 2003 (Looking at mRNA decay pathways through the window of molecular evolution. Curr. Opin. Genet. Dev. 13, 207-214) with the following modifications. No plasmid DNA was added and 1.0 μl in vitro-translated protein and 150× cold competitor were used. The reaction mixture was incubated on ice for 20 min before adding the radioactive oligo and thereafter incubated at room temperature for 30 min. Gels were run at 150 V in room temperature. […] It may therefore be a dominant negative form with normal DNA-binding but defective interaction with other proteins. This would be consistent with the clear phenotypic effects observed in heterozygotes. However, the mutation is not fully dominant as CA heterozygotes and AA homozygotes show distinct phenotypic differences.
# [1] = target: DMRT3 Ser301STOP mutant (truncated, 300 aa) (Equus caballus, UniProt J7FCF0 SEQ:1-300); assay: EMSA; 150x cold competitor used; on ice 20 min then room temperature 30 min; truncation retains DNA binding; details: tags: myc; label: 32P (Klenow fill-in with alpha-32P-dCTP)
# Chain of DMRT3 Ser301STOP mutant (truncated, 300 aa) (J7FCF0 other isoform, or with tags, fused parts or gaps mutant): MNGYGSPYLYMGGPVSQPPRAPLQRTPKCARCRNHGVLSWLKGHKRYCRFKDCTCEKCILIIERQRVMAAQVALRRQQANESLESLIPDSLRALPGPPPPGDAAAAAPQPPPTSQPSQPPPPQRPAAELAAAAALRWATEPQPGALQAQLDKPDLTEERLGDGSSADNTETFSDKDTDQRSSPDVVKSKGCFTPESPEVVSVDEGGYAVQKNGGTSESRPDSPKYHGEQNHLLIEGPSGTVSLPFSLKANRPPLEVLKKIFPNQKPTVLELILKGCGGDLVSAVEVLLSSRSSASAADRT
# Procedure: as §1
# Chain of DMRT3 wild-type (F6W2R2 whole entry A151D): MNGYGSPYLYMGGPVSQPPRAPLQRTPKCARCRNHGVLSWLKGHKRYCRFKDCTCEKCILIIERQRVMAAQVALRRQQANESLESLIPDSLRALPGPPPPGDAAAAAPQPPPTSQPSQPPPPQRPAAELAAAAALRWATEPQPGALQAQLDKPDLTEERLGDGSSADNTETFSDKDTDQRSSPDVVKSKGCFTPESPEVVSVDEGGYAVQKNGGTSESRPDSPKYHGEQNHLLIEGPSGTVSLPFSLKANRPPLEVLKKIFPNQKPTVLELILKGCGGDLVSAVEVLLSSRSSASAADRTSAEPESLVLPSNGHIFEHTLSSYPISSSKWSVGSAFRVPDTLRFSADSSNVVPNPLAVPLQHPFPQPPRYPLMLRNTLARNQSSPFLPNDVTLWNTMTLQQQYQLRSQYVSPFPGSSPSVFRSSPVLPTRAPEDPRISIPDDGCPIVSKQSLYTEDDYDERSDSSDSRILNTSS
binder,measurement,setting,value
B1,binding result,DMRT3 wild-type,binds
same,binding result,[1],binds
